According to article doi:10.1101/2020.11.13.381350 (bioRxiv, 2020):

Biological target: the molecule itself
Test: SEC

B1: EGFP-WT-mVP40 (natural protein)
chain: MASSSNYNTYMQYLNPPPYADHGANQLIPADQLSNQQGITPNYVGDLNLDDQFKGNVCHAFTLEAIIDISAYNERTVKGVPAWLPLGIMSNFEYPLAHTVAALLTGSYTITQFTHNGQKFVRVNRLGTGIPAHPLRMLREGNQAFIQNMVIPRNFSTNQFTYNLTNLVLSVQKLPDDAWRPSKDKLIGNTMHPAVSIHPNLPPIVLPTVKKQAYRQHKNPNNGPLLAISGILHQLRVEKVPEKTSLFRISLPADMFSVKEGMMKKRGENSPVVYFQAPENFPLNGFNNRQVVLAYANPTLSAV
Question: How did the “stoichiometry N” value turn out when B1 was run?
Answer: 6
